Test results: patent US20060104978

How the values were obtained:
[1] = biological target: T1, endogenous latent PDGF-CC secreted by primary mouse fibroblasts, Q8CI19
T1 chain: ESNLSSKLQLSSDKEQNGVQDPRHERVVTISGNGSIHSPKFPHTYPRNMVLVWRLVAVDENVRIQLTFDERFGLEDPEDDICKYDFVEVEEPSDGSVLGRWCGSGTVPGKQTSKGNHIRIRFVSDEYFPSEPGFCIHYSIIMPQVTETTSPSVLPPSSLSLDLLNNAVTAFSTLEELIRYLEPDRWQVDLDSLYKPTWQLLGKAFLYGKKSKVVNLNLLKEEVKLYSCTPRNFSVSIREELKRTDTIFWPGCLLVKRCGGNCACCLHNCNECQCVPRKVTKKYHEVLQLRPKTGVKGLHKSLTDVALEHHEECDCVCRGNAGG

[2] = biological target: full-length PDGF-C expressed in transfected COS-1 cells (latent PDGF-CC), Q9NRA1
[3] = biological target: full-length PDGF-D expressed in transfected COS-1 cells (latent PDGF-DD), Q9GZP0
[4] = biological target: T2, CUBc-myc (CUB domain of PDGF-C, residues 1 to 165, with a human c-myc tag), Q9NRA1
T2 chain: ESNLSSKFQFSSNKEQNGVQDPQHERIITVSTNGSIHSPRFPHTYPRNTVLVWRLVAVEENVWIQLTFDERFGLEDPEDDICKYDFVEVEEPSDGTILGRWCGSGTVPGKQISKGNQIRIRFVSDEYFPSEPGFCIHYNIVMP

[5] = biological target: PDGF-CC deletion mutant ΔN150, Q9NRA1
[6] = biological target: PDGF-CC deletion mutant ΔN170, Q9NRA1
[7] = biological target: PDGF-CC deletion mutant ΔN190, Q9NRA1
[8] = biological target: PDGF-CC deletion mutant ΔN210, Q9NRA1
[9] = biological target: PDGF-CC deletion mutant ΔN230, Q9NRA1
[10] = biological target: T3, chimeric PDCUBPC (CUB region of PDGF-D, hinge/core region of PDGF-C), Q9GZP0
T3 chain: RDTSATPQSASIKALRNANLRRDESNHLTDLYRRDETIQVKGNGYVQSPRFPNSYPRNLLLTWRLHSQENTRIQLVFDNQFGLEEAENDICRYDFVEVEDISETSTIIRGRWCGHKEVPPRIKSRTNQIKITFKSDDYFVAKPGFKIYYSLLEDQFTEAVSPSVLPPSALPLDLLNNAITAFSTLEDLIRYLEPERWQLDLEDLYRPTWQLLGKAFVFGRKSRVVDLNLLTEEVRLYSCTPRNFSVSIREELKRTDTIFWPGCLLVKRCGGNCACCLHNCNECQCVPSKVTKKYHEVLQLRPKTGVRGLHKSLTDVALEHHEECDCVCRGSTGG

[11] = biological target: cleavage site mutant of mouse PDGF-C (-K-K-S-K- replaced by four alanines), Q8CI19
[12] = biological target: recombinant His6-tagged latent (full-length) PDGF-DD, Q9GZP0
[13] = biological target: recombinant His6-tagged latent (full-length) human PDGF-CC, Q9NRA1

B1: endogenous tPA of primary mouse fibroblasts (protein)
chain: SYRATCRDEPTQTTYQQHQSWLRPMLRSSRVEYCRCNSGLVQCHSVPVRSCSEPRCFNGGTCQQALYFSDFVCQCPDGFVGKRCDIDTRATCFEEQGITYRGTWSTAESGAECINWNSSVLSLKPYNARRPNAIKLGLGNHNYCRNPDRDLKPWCYVFKAGKYTTEFCSTPACPKGKSEDCYVGKGVTYRGTHSLTTSQASCLPWNSIVLMGKSYTAWRTNSQALGLGRHNYCRNPDGDARPWCHVMKDRKLTWEYCDMSPCSTCGLRQYKRPQFRIKGGLYTDITSHPWQAAIFVKNKRSPGERFLCGGVLISSCWVLSAAHCFLERFPPNHLKVVLGRTYRVVPGEEEQTFEIEKYIVHEEFDDDTYDNDIALLQLRSQSKQCAQESSSVGTACLPDPNLQLPDWTECELSGYGKHEASSPFFSDRLKEAHVRLYPSSRCTSQHLFNKTVTNNMLCAGDTRSGGNQDLHDACQGDSGGPLVCMINKQMTLTGIISWGLGCGQKDVPGVYTKVTNYLDWIHDNMKQ
processing of latent PDGF-CC in medium of tPA-deficient against wild-type fibroblasts (immunoblot) [1]: the generation of double species migrating as 22-25 kDa was reduced to less than 10%

B2: human neurotrypsin (NT) expressed in transfected COS-1 cells (pSG5) (protein)
chain: FDSVLNDSLHHSHRHSPPAGPHYPYYLPTQQRPPRTRPPPPLPRFPRPPRALPAQRPHALQAGHTPRPHPWGCPAGEPWVSVTDFGAPCLRWAEVPPFLERSPPASWAQLRGQRHNFCRSPDGAGRPWCFYGDARGKVDWGYCDCRHGSVRLRGGKNEFEGTVEVYASGVWGTVCSSHWDDSDASVICHQLQLGGKGIAKQTPFSGLGLIPIYWSNVRCRGDEENILLCEKDIWQGGVCPQKMAAAVTCSFSHGPTFPIIRLAGGSSVHEGRVELYHAGQWGTVCDDQWDDADAEVICRQLGLSGIAKAWHQAYFGEGSGPVMLDEVRCTGNELSIEQCPKSSWGEHNCGHKEDAGVSCTPLTDGVIRLAGGKGSHEGRLEVYYRGQWGTVCDDGWTELNTYVVCRQLGFKYGKQASANHFEESTGPIWLDDVSCSGKETRFLQCSRRQWGRHDCSHREDVSIACYPGGEGHRLSLGFPVRLMDGENKKEGRVEVFINGQWGTICDDGWTDKDAAVICRQLGYKGPARARTMAYFGEGKGPIHVDNVKCTGNERSLADCIKQDIGRHNCRHSEDAGVICDYFGKKASGNSNKESLSSVCGLRLLHRRQKRIIGGKNSLRGGWPWQVSLRLKSSHGDGRLLCGATLLSSCWVLTAAHCFKRYGNSTRSYAVRVGDYHTLVPEEFEEEIGVQQIVIHREYRPDRSDYDIALVRLQGPEEQCARFSSHVLPACLPLWRERPQKTASNCYITGWGDTGRAYSRTLQQAAIPLLPKRFCEERYKGRFTGRMLCAGNLHEHKRVDSCQGDSGGPLMCERPGESWVVYGVTSWGYGCGVKDSPGVYTKVSAFVPWIKSVTKL
proteolytic cleavage in the cotransfection assay (SDS-PAGE, immunoblot) [2]: neurotrypsin (NT) lacked proteolytic activity toward latent PDGF-CC | proteolytic cleavage in the cotransfection assay (SDS-PAGE, immunoblot) [3]: neither of the two enzymes was able to cleave and activate latent PDGF-DD

B3: full-length human tPA expressed in transfected COS-1 cells (pSG5) (protein)
chain: SYQVICRDEKTQMIYQQHQSWLRPVLRSNRVEYCWCNSGRAQCHSVPVKSCSEPRCFNGGTCQQALYFSDFVCQCPEGFAGKCCEIDTRATCYEDQGISYRGTWSTAESGAECTNWNSSALAQKPYSGRRPDAIRLGLGNHNYCRNPDRDSKPWCYVFKAGKYSSEFCSTPACSEGNSDCYFGNGSAYRGTHSLTESGASCLPWNSMILIGKVYTAQNPSAQALGLGKHNYCRNPDGDAKPWCHVLKNRRLTWEYCDVPSCSTCGLRQYSQPQFRIKGGLFADIASHPWQAAIFAKHRRSPGERFLCGGILISSCWILSAAHCFQERFPPHHLTVILGRTYRVVPGEEEQKFEVEKYIVHKEFDDDTYDNDIALLQLKSDSSRCAQESSVVRTVCLPPADLQLPDWTECELSGYGKHEALSPFYSERLKEAHVRLYPSSRCTSQHLLNRTVTDNMLCAGDTRSGGPQANLHDACQGDSGGPLVCLNDGRMTLVGIISWGLGCGQKDVPGVYTKVTNYLDWIRDNMRP
cleavage of full-length PDGF-CC by tPA in the cotransfection assay (immunoblot) [4]: the CUB domain efficiently competed for the interaction and processing of latent PDGF-CC by tPA | proteolytic cleavage in the cotransfection assay (immunoblot) [5]: neither chimeric PDCUBPC, nor the truncation mutants lacking the CUB domain, were efficiently cleaved | proteolytic cleavage in the cotransfection assay (immunoblot) [6]: neither chimeric PDCUBPC, nor the truncation mutants lacking the CUB domain, were efficiently cleaved | proteolytic cleavage in the cotransfection assay (immunoblot) [7]: neither chimeric PDCUBPC, nor the truncation mutants lacking the CUB domain, were efficiently cleaved | proteolytic cleavage in the cotransfection assay (immunoblot) [8]: neither chimeric PDCUBPC, nor the truncation mutants lacking the CUB domain, were efficiently cleaved | proteolytic cleavage in the cotransfection assay (immunoblot) [9]: neither chimeric PDCUBPC, nor the truncation mutants lacking the CUB domain, were efficiently cleaved | proteolytic cleavage in the cotransfection assay (immunoblot) [10]: neither chimeric PDCUBPC, nor the truncation mutants lacking the CUB domain, were efficiently cleaved | proteolytic cleavage in the cotransfection assay (immunoblot) [11]: the mutant was resistant to tPA-mediated cleavage | proteolytic cleavage in the cotransfection assay (SDS-PAGE, immunoblot) [2]: tPA released the growth factor domain of latent PDGFCC, and the fragment migrated as a 22 kDa species under reducing conditions | proteolytic cleavage in the cotransfection assay (SDS-PAGE, immunoblot) [3]: neither of the two enzymes was able to cleave and activate latent PDGF-DD

B4: tPA purified from human melanoma cells (T7776, Sigma) (protein)
chain: SYQVICRDEKTQMIYQQHQSWLRPVLRSNRVEYCWCNSGRAQCHSVPVKSCSEPRCFNGGTCQQALYFSDFVCQCPEGFAGKCCEIDTRATCYEDQGISYRGTWSTAESGAECTNWNSSALAQKPYSGRRPDAIRLGLGNHNYCRNPDRDSKPWCYVFKAGKYSSEFCSTPACSEGNSDCYFGNGSAYRGTHSLTESGASCLPWNSMILIGKVYTAQNPSAQALGLGKHNYCRNPDGDAKPWCHVLKNRRLTWEYCDVPSCSTCGLRQYSQPQFRIKGGLFADIASHPWQAAIFAKHRRSPGERFLCGGILISSCWILSAAHCFQERFPPHHLTVILGRTYRVVPGEEEQKFEVEKYIVHKEFDDDTYDNDIALLQLKSDSSRCAQESSVVRTVCLPPADLQLPDWTECELSGYGKHEALSPFYSERLKEAHVRLYPSSRCTSQHLLNRTVTDNMLCAGDTRSGGPQANLHDACQGDSGGPLVCLNDGRMTLVGIISWGLGCGQKDVPGVYTKVTNYLDWIRDNMRP
in vitro cleavage with purified tPA (SDS-PAGE, immunoblot) [12]: PDGF-CC, but not PDGF-DD, is a substrate for tPA | in vitro cleavage with purified tPA (SDS-PAGE, immunoblot) [13]: PDGF-CC, but not PDGF-DD, is a substrate for tPA
